Laboratory results as given in paper PMC10383791, “Evaluation of [^18F]AlF-EMP-105 for Molecular Imaging of C-Met” (Pharmaceutics, 2023).
“Also recorded” adds a separate entry of the source. Bridge positions count the residues as written; N and C are the ends. Ends that are not written are not given here. Peptide text beside a SMILES is read from it. * marks the point of attachment. NOTA = O=C(O)CN1CCN(CC(=O)O)CCN(CC(=O)*)CC1

What was measured:
physchem = experiment: physchem
Method: (§1) Analytical radio-HPLC chromatograms were obtained using an Agilent 1200 series instrument equipped with a flow-ram detector (Lablogic, Sheffield, UK), and integrated using Laura 6 software (Lablogic, Sheffield, UK). Column: phenomenex Aeris^TM 3.6 µm WIDEPORE C4 200 Å. Mobile phase: 0.1% TFA H2O:MeCN 95:5 v/v to 5:95 v/v, 0.8 mL/min flow rate.
(§2) A fraction of purified [^18F]AlF-EMP-105 (10 MBq in ~10 µL EtOH) was incubated, respectively, in 1000 µL of EtOH, PBS, RPMI, human serum and EDTA (0.02% in 0.5 mM DPBS) at 37 °C, and analysed by RP-HPLC at 1, 2, 3, and 4 h time points. For stability towards radiolysis, aliquots of >2 GBq of purified [^18F]AlF-EMP-105 eluted from the cartridge in ethanol (75% in 10 mM H3P0_4) or formulated in PBS solution containing 7.5% ethanol and 5 mg/mL (10 mL) of 4-aminobenzoic acid (PABA) as radioprotectant were analysed by RP-HPLC.

[1] = dynamic PET 60 min, TACs, healthy mice, i.v.
Method: Female BALB/c mice (6–8 weeks old) were anaesthetized with 2% isoflurane/O2. Imaging was performed using a Siemens Inveon small-animal multimodality PET/CT system (Siemens Medical Solutions USA, Inc., Knoxville, TN, USA). After completion of the CT scan, [^18F]AlF-EMP-105 (4.6 ± 1.2 MBq) was injected intravenously via the lateral tail vein. Dynamic emission scans were acquired in list-mode format for 60 min. Image data were processed as 0.5 mm sinogram bins and 33 time-frames, and reconstructed using the 2D-ordered subsets expectation maximization (2D-OSEM) algorithm with CT-based attenuation correction. The following frame durations were used: 12 × 5 s, 4 × 15 s, 6 × 30 s, and 11 × 300 s. Images were analysed using Inveon Research Workplace software (Siemens Healthcare Molecular Imaging, Knoxville, TN, USA). PET and CT images were co-registered and used to draw 3-dimensional regions of interests (ROIs) over tissues to obtain time–activity curves (TACs). Decay-corrected tissue time versus radioactivity curves (TACs) were generated and normalized to whole-body activity to obtain normalized uptake values (NUVs).

HT29 [2] = experiment: In vitro radioactive uptake with and without EMI-137 blocking; format: cell-based; conditions: ~0.74 MBq, 60 min, 37 °C, gamma counting, mean ± SEM
Method: (§3) H1975 (non-small cell lung cancer), HEPG2a (hepatocellular carcinoma), HT29 (colorectal cancer) were purchased from ATCC. OE21 (oesophageal squamous cell carcinoma) was obtained from Prof George Hanna. H1975 and OE21 cells were maintained in RPMI-1640 media (Sigma-Aldrich) supplemented with 10% fetal calf serum (Sigma-Aldrich), 1% L-glutamine, and 2% penicillin/streptomycin (Sigma-Aldrich). HEPG2a and HT29 cells were cultured in DMEM (Sigma-Aldrich) containing 10% fetal calf serum, 1% L-glutamine, and 2% penicillin/streptomycin. All cell lines were cultured at 37 °C and 5% CO2.
(§4) Cells were seeded at appropriate densities (~500,000 cells/well in a 6-well plate) and allowed to attach overnight. On the day of uptake, cells were washed three times with warm PBS and incubated with 1 mL of fresh media containing approximately 0.74 MBq of [^18F]AlF-EMP-105, with or without 100× molar equivalent of EMI-137 (blocking compound), in a humidified condition with 5% CO2 at 37 °C for 60 min. After 60 min of incubation, the cells were washed with ice-cold PBS (3 times), then lysed in 1 mL of RIPA buffer for 10 min on ice. Following this step, radioactivity from 800 µL of lysate from each sample was counted on a WIZARD2® Automatic Gamma Counter. To determine the specificity of uptake, data were expressed as a percentage of radioactivity incorporated into cells, in untreated cells compared to cells blocked with EMI-137.

HEPG2a [3] = experiment: as above; format: cell-based; conditions: HEPG2a (negative control); ~0.74 MBq, 60 min, 37 °C; gamma counting; mean ± SEM
Method: as §3, §4

OE21 [4] = experiment: as above; format: cell-based; conditions: ~0.74 MBq, 60 min, 37 °C, gamma counting, mean ± SEM
Method: as §3, §4

H1975 [5] = experiment: as above; format: cell-based; conditions: ~0.74 MBq, 60 min, 37 °C, gamma counting, mean ± SEM
Method: as §3, §4

[6] = Radioactive metabolite analysis in tissues by radio-HPLC; conditions: mouse i.v., mean ± s.d., n = 3
Method: For metabolite analysis, radio-HPLC chromatograms were obtained using an Agilent 1100 system equipped with an in-line posiRAM metabolite detector (Lablogic, Sheffield, UK). The same column and mobile phase were used.
In female BALB/c mice at 5 and 30 min p.i. of [^18F]AlF-NOTA-EMP-105, four key tissues (blood plasma, liver, kidney and urine) were analysed for radioactive metabolites by radio-HPLC. The retention time of free [^18F]fluoride and the parent compound [^18F]AlF-EMP-105 were determined by injecting a pure sample of each onto the metabolite radio-HPLC system.
The liver and kidneys were excised, and homogenised in ice cold MeCN:H2O (1 mL, 1:2 v/v) using a Precellys tissue homogeniser fitted with a Cryolys cooling module (Stretton Scientific Ltd., Derbyshire, UK). The homogenate was centrifuged (13,000× g, 5 min), the supernatant was removed, filtered (0.22 µm syringe filter) and diluted in water prior to RP-HPLC analysis. Urine was diluted in water and filtered prior to HPLC analysis. Plasma was obtained from whole blood by centrifugation (2000× g, 10 min) to separate the blood cells from the plasma. Plasma were precipitated with ice cold MeCN:H2O (1 mL, 1:2 v/v), and centrifuged (13,000× g, 5 min) to pellet the proteins. The supernatant was filtered and diluted in water for radio-HPLC analysis. The HPLC injection loop was washed with MeCN:H2O 1:1 v/v (1 mL) and then 5:95 v/v (1 mL) between each injection. The extraction efficiency from each tissue sample was determined by counting the activity (counts per minute, CPM) of a small aliquot (20 µL) of the supernatant of a known volume and the whole protein pellet, in a γ-counter.

in vitro = conditions: human, human serum
Method: as §1, §2

HT29 [7] = experiment: Flow cytometry uptake of EMI-137 (c-Met expression level); format: cell-based; conditions: 50 nM, 1 h, 37 °C
Method: as §3
(§5) Approximately 500,000 cells were seeded in 6-well plates and cultured for 24 h at 37 °C and 5% CO2. Cells were washed with warm PBS and incubated with 50 nM EMI-137 for 1 h at 37 °C and 5% CO2. Subsequently, cells were washed with ice-cold PBS three times prior to sample acquisition via FACS Canto flow cytometer (Becton Dickinson Immunocytometry Systems, Franklin Lakes, NJ, USA) with FACS Diva Software version 4.0.2. The obtained data were analysed using FlowJo software v7.6 (FlowJo, LLC, Ashland, OR, USA). Unstained controls were used to define gates and adjust fluorescence compensation.

HEPG2a [8] = experiment: as above; format: cell-based; conditions: HEPG2a (negative control), 50 nM, 1 h, 37 °C
Method: as §3, §5

OE21 [9] = experiment: as above; format: cell-based; conditions: 50 nM, 1 h, 37 °C
Method: as §3, §5

H1975 [10] = experiment: as above; format: cell-based; conditions: 50 nM, 1 h, 37 °C
Method: as §3, §5

H1975 cells = experiment: Internalisation assay of EMI-137 by flow cytometry; format: cell-based
Method: as §3
H1975 cells were seeded in a 6-well plate at a seeding density of 500,000 cells/well, 24 h prior to performing internalisation assay. […] Subsequently, cells were washed with ice-cold PBS three times. To determine internalisation levels at 4 °C, surface-bound EMI-137 was removed by washing the cells with 50 mM of glycine prepared in 150 mM NaCl (Sigma) for 5 min followed by three washes with ice-cold PBS. […] Data were presented as mean Fluorescence Intensity (MFI). The internalised fraction was determined by subtracting the surface-bound EMI-137 from total EMI-137. The percentage of internalised fraction was calculated by dividing the amount of internalised EMI-137 by total-bound EMI-137 multiplied by 100%. Unstained controls were used to define gates and adjust fluorescence compensation.

Compound: CC(=O)N[C@@H](C)C(=O)NCC(=O)N[C@@H](CO)C(=O)N[C@H]1CSSC[C@@H](C(=O)N[C@@H](Cc2ccc(O)cc2)C(=O)N[C@@H](CCC(=O)O)C(=O)N[C@H](C(=O)N[C@@H](CCC(=O)O)C(=O)NCC(=O)N[C@H](C(=O)NCC(=O)NCC(=O)NCC(=O)N[C@@H](CCCCNC(=O)CN2CCN(CC(=O)O)CCN(CC(=O)O)CC2)C(N)=O)[C@@H](C)O)[C@@H](C)O)NC(=O)[C@H](Cc2c[nH]c3ccccc23)NC(=O)[C@@H]2CSSC[C@H](NC(=O)[C@H](Cc3ccc(O)cc3)NC1=O)C(=O)N[C@@H](CO)C(=O)NCC(=O)N1CCC[C@H]1C(=O)N1CCC[C@H]1C(=O)N[C@@H](CCCNC(=N)N)C(=O)N[C@@H](Cc1ccccc1)C(=O)N[C@@H](CCC(=O)O)C(=O)N2 [[^18F]AlF-EMP-105] (Ac-AGSCYCSGPPRFECWCYETEGTGGGK(NOTA)-NH2; disulfide 4-16, 6-14)
- remaining at 1 h, 9.9 MBq/mL (physchem; EDTA (0.02% in 0.5 mM DPBS)): 99%
- remaining at 2 h, 9.9 MBq/mL (physchem; EDTA (0.02% in 0.5 mM DPBS)): 99%
- remaining at 3 h, 9.9 MBq/mL (physchem; EDTA (0.02% in 0.5 mM DPBS)): 98%
- remaining at 4 h, 9.9 MBq/mL (physchem; EDTA (0.02% in 0.5 mM DPBS)): 98%
- remaining at 1 h, 9.9 MBq/mL (physchem; PBS): 98%
- remaining at 2 h, 9.9 MBq/mL (physchem; PBS): 97%
- remaining at 3 h, 9.9 MBq/mL (physchem; PBS): 95%
- remaining at 4 h, 9.9 MBq/mL (physchem; PBS): 95%
- remaining at 1 h, 9.9 MBq/mL (physchem; RPMI media): 97%
- remaining at 2 h, 9.9 MBq/mL (physchem; RPMI media): 97%
- remaining at 3 h, 9.9 MBq/mL (physchem; RPMI media): 97%
- remaining at 4 h, 9.9 MBq/mL (physchem; RPMI media): 92%
- Time at which activity peaked, heart, lung and liver ([1]; heart, lung and liver): 1 min
- Time at which activity peaked, kidneys ([1]; kidneys): 2.5 min
- Change in radioactive uptake when blocked with 100-fold of EMI-137 (HT29 [2]): significant decrease; also recorded: statistically significant decreases
- Change in radioactive uptake when blocked with 100-fold of EMI-137 (HEPG2a [3]): not significant; also recorded: not observed
- Change in radioactive uptake when blocked with 100-fold of EMI-137 (OE21 [4]): significant decrease; also recorded: statistically significant decreases
- Change in radioactive uptake when blocked with 100-fold of EMI-137 (H1975 [5]): significant decrease; also recorded: statistically significant decreases
- Percentage of [^18F]AlF-EMP-105 Remaining ([6]; kidney, 5 min p.i.): 9.8 ± 12.9%
- Percentage of [^18F]AlF-EMP-105 Remaining ([6]; kidney, 30 min p.i.): 4.3 ± 4.3%
- Percentage of [^18F]AlF-EMP-105 Remaining ([6]; liver, 5 min p.i.): 6.2 ± 10.8%
- Percentage of [^18F]AlF-EMP-105 Remaining ([6]; liver, 30 min p.i.): 0.4 ± 0.7%
- Percentage of [^18F]AlF-EMP-105 Remaining ([6]; plasma, 5 min p.i.): 98.3 ± 1.1%
- Percentage of [^18F]AlF-EMP-105 Remaining ([6]; plasma, 30 min p.i.): 93.3 ± 7.4%
- Percentage of [^18F]AlF-EMP-105 Remaining ([6]; urine, 30 min p.i.): 7.9 ± 9.2%
- remaining at 1 h, 9.9 MBq/mL (in vitro): 99%
- remaining at 2 h, 9.9 MBq/mL (in vitro): 99%
- remaining at 3 h, 9.9 MBq/mL (in vitro): 98%
- remaining at 4 h, 9.9 MBq/mL (in vitro): 97%

Compound: AGSCYCSGPPRFECWCYETEGT-Cy5 (also: cyclic, ring closure not given here) [EMI-137]
- Fluorescent uptake of EMI-137 (HT29 [7]): High uptakes
- Fluorescent uptake of EMI-137 (HEPG2a [8]): low uptake
- Fluorescent uptake of EMI-137 (OE21 [9]): High uptakes
- Fluorescent uptake of EMI-137 (H1975 [10]): High uptakes
- Internalisation of EMI-137 (H1975 cells; 0, 5, 15 and 30 min at 37 °C after 30 min at 4 °C, glycine wash): increased with time
- Difference in uptake at 37 °C versus 4 °C (H1975 cells; 50 nM, 30 min): the difference was not significant
